Reference: article PMC8163098

Key:
[1] = molecular target: mouse 80S ribosomes (monosomes) and polysomes (mouse (endogenous in neocortex and Neuro2a)) (UniProt P84099); assay: cryo-EM structure
[2] = molecular target: rabbit reticulocyte 60S ribosomal subunit (rabbit (endogenous in reticulocyte lysate)) (UniProt G1SV32); assay: co-sedimentation

| Substance | overall occupancy [1] | percent of ribosomes with Ebp1 bound [1] | percent of ribosomes with Ebp1 bound, each of the five sub-states [1] | Ebp1 concentration at saturated binding (100 nM 60S) [2] | Kd [2] |
| --- | --- | --- | --- | --- | --- |
| ErbB3-binding protein 1 (Ebp1), endogenous full-length mouse protein (from UniProt P50580-1 1-394) (natural protein) | 52% | 48% | 50% |  |  |
| polyhistidine-tagged full-length recombinant Ebp1 (Ebp1-His) (from UniProt P50580 1-394) (natural protein) |  |  |  | 200 nM | 124 nM |
